Data published in the domain aggregation screens of Martell et al. (2025).

Assay: soluble fraction after stress (log2 fold change); higher = more stays soluble; pooled small domains, quantitative proteomics
Details: stress: pH 4
Outline: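 Pooled custom libraries of small protein domains were stressed at pH 4 and then measured by high-throughput quantitative proteomics. The fold change in the amount of each domain that stays soluble after the acid stress serves as a measure of aggregation propensity. Fold changes are given on a log2 scale, and higher values mean more of the domain stayed soluble.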

Sequence | soluble fraction (log2)
HMLKLSGEESQQLALRLREELARRRITRQGLADAAKISISTLEQVLAGRRTFTLATIVRLEEGLGIKLL | 0.387
HMLKNKSTGNINETKAILELALNHSHFKVFDNRDMTVTFKNLATQFTTMQRILVQMFFPLPAGVELIIE | 0.268
HMLKNYATPEQRAQLDMLKDKGIIGENELMQLGKYPSQDKASEVLENHADAVKMLDSDEISNRAEAIRSHD | 0.22
HMLKPQQTQRIYAMAARLGVLESGNKNDMLHTIVYRLTQKESIRSLNENEYKTVVSELAERLKL | -0.917
HMLKQLGRQEGRQEGAVDALRTVLALQIEQRFGPLDPTVQALIVAADIDALQRALSRVAVVSDLGAVFPP | -0.862
HMLKRLTVEFSAEMPKKMTSEQKEELASVLSEDPRPAYQNDENREYGLDYGEFSVKFKVKDGVLTVTSVTE | 0.226
HMLLNLSPIETQVLRLIQQDKKVTYESIGKELTIGQTKVYKVLGHLKELNVIERIGGRTYGHWHILL | -0.599
HMLLNPFERLTERELEIADLYAKGYGNLEIANFLSIKQNTVSTYKKRIFEKLGIDNLVELIELIKNY | -0.839
HMLLQTRQRHEALAALGYFKGDVAAAWGPASEEALRAAQAAFGITVDGKWGPQTEDAIQGALQV | -0.701
HMLLREKLESVLPFISVSALAKTYFKRSPQWFYQRLNGSIVNGKPIRFNDAELKTLAGALTDIGKKISQAA | 0.157
HMLLSEPSVLKFNDDNSYEIVSGFLTEYKDKIVKIERRYKKATVKITVAGEEKEIKVSFVEDTE | -1.13
HMLLSTHVVVAKEDVQIGTRLQPAMLQVVDWPSASPLKNPLTSIEQATDRVVNMPLVKGEPISMSKLAAKG | 0.0815
HMLLTASNYFKETKGINFSELPEALQKGHSFVIKSTENGTNWNAYSTSQNIQRVIDAYFSKLDEYLEKNQ | -0.202
HMLLTHEEQIVKRGWQAPVGPFAILDSRAEAMHGDLEMLRGDREAAEQHFRRAWQIIGPIVEQ | 0.0572
HMLMKILTDALEKMSPEELKELAEATGVKNTSSITPETMVGVFQAVFRVGGFKSYQLTLIIVNAVLKA | -0.398
HMLMRKAEVGVESLNLRHGPGTQYKVLEILPGGKSLHYLAEPRRGWVRVTTEEGTTGWTFLKFLKPE | -0.0205
HMLNENNHGEWSIRMSNGLVVRLGRDELNRSLRRSIMAYAGLAPNYRSSIEYIDARYLGGVALKTF | -0.159
HMLNKRQAEILAEVSRLKEITPSELYKLQPNVSSRTLRRDMDVLVNKGLVSQDGSTKSTKYTYL | 0.102
HMLNMTLGDRIRSRREELRMSQEELATRLGYKSRSTIAKIESGENDLTQSKIVAFAEALSTTARWLLDY | 0.0651
HMLNVNDVIARNVRAARERKKLTLDGAAELTGVSRSMLAQIEKGEVNPTISVVWKIANGFKVSFTSLVEPQ | -0.0104
HMLPAGSDAILRYLSSGAVKGIGVATAARIVEKFGDETLRILEEEPGRLAEIKGITAAKAKAIGEAFAGQ | -0.143
HMLPELIVTTKKGVTVTVTNGVITYSATSNGKATFTVPNYGKWTVSATINGTVISKVVDVTEAKQIPVLLG | -0.318
HMLPERIQTIVALIGHGRAMDLVREFGGQEIKFPAQEGNDTWAALVEVIGEAATRKLAAVFGGGQAPPVYI | -0.593
HMLPGVPVVAGKTQSAATRILKAAGYAVSVVREEAFDGVTGTVLRTSPEAGSPLAPGSRVTLVVLQVV | -0.114
HMLPGWMETKFTANVSENTKNRTLEEHVLKMLNNKESAAEFIIFLHEKMMSVSGQVFQLDSR | -0.0998
HMLPIGSSREQVISSLNKMHQDYKEEGNFIYAGYFKQGLPLVPSPRISIALQFNETAHLEKIDATLNYV | -0.467
HMLPKLAEEYAIMEIRGKGENLTAKLINKGGDSFMVRNGTVLQTGHRIDEITQTYVRAEINGMKDYLYFA | -1.44
HMLPLLAFDEKLNRLGYGGGFYDRTLASLAHKGNTITAIGIAYESQKMDKVPTGYFDRPLDGVLTPSGLIM | -0.0764

Sequence | soluble fraction (log2)
HMLPNLWVMGPGDHLWRVAEVAMTKHLGRPVANHEIDGYWRRLVALNRESLIDPDNPDLVFAGQVIELPPF | -2.2
HMLPQGKGTAMWLADHLAAASVTLDAGARKLLEDTLGEDMSRLPGVLRVLEATFGSDAGRLSAEDIEPFL | -1.05
HMLPRNKRIEIALTYIYGLGRHAATVVLKHANISPDKRTDDLDENDVRKLRDAIDANFRVEGDLRR | -0.0555
HMLPTVSITGHIFIRSGSPLNRIFVGEKIYHVGDHIDRDWVIESIGIDTLTIRSGTLSTQLPL | 0.034
HMLPVFNYQVYRTHGLIYVYAKDNDSFDQIARSMGFKAKQLMKFNEVPEDFPLQAGDIVYLEKKKK | -0.368
HMLPVLEIGTMIRIIRQPHFGTIARVVALPEELTKVESETLVRILDAEFDDGTRVRIPRANVEVIE | -1.37
HMLPYGDRRRHTDNTISRIRELAAALDDSGIADRLNQDGYVTPEGKPFTYAGVRWIRYKYDISGPYERN | -0.364
HMLQKVELSDNEKFIFDSLQKEQKMALLRLKELVNLSNKAWDVSVKNLTKQGLVKVTKIDEELLIEI | -1.24
HMLQPQMKKFLNYESARNKMRPFGLSTRKEWRLFVDEGNRPADIPGDPYKKYKNKGWISWPHFLGK | 0.0515
HMLRDTTLLHIDSIVRDGSTAMANITVRDEGTDLEFPLQLRMERGDMGWQVVRIVNYRAYLEAVQKA | -0.59
HMLRGKNALMSQLDQIQGIGPKRKRALFNHFLTLDAIKQADVETLRQAPGMNLPAAEQVYRHFHM | 0.144
HMLRIIDYNRVVKDLNGLTPEQLLEKLAESFTVEDKGTEEYRPTELHNFSMYLGGHWYSLTAKPGTYDDND | -0.926
HMLRMTRNRQKLVEVLMESGRPLSADEIREAAGFASTDLVTVYRNLEAFQSAGLLQRIPLENGSQLFELT | -0.269
HMLRNDEAVMLGRRLLNKHLQAFSVQIKDISHQRIHDLLDELELESLDHLLDDIGLGNRSVFLVAQKLLQ | -1.25
HMLRQRVFRIIQNNINSKNYFVYTKQILAELAGISMRSLNRTLSELQNDRLIIVDSGTIRLFT | -0.824
HMLRVGASVTANGKYWYDSYGSKPFGTANNLSTTVTRIVPGNPYPIHIGSYGWLQESQIQIT | 0.204
HMLSDADLAAFREVFDLVDKDKSGAIEMEEVEELTKLLGLDLTRDEVELLVREIDKDGNGEVDFEEFLLVM | -0.115
HMLSDHGLNDRQIMVIAGLMNGGTVTVRSIESQYGVSLNTARADVKMLVDAGLLTETGREVNMKVYSWSGK | -0.22
HMLSDSDTLRDLYLSEQIWNVGDLIRVKGKNDDTHPSWEIIRRGTNYITAIDENYKSHKVWLHDIDI | -1.4
HMLSEKELLELLNRAKSNYNGITKKGIEAIALKYQGYSNVEIANLYHVKANHISAWISRARSRLKADY | -0.0621
HMLSNLYAVLGVGRRATPDEITAAFDAWNARADAGEPIDDPLWERVRYAWDVLSSPSRRDLYDSLVDDATG | -2.25
HMLSSREEKILNYLNEHQIITRKKAQELLETSQSTAGRVLKIMVDNGLIVQYGGSRSIWYELIK | -0.269
HMLSTGIIIGDNVALRKTASSNGGIITRLDEGTVVKILASNVNAEWYQVEAGTKTGYVNRLYVNID | -0.345
HMLSTGQLIRYYRKRAGMTQAELAEEVEMSEPGIRNYELGNRTPSKAQLSAIARGLGIEPEALI | -0.0764
HMLSVKEQTYQIIKEKILNQEYPAGARININELAEELGISNSPIREALSLLEQQGLVISNRSSGATVT | -0.772
HMLSVLKNVDVNSLSDDKIKTYWQQIQKSGYTLDEVEVLAEAQGISPLKIAAFKRRVQSLQQSLQT | -0.018
HMLSYDDTVVIGRNLLENAMKQKNIALEQLTDEVLARLAKELQVESVEAMYAGIGSGKRPSSFIINRLEAH | -0.454
